Molecular target: SARS-CoV-2 (2019-nCoV) Spike RBD-His Recombinant Protein (SARS-CoV-2, UniProt P0DTC2 319-541)
Experiment: ELISA

B1: B-38 (antibody, V domains shown)
VH: EVQLVESGGGLVQPGGSLRLSCAASGFIVSSNYMSWVRQAPGKGLEWVSVIYSGGSTYYADSVKGRFTISRHNSKNTLYLQMNSLRAEDTAVYYCAREAYGMDVWGQGTTVTVSS
VL: DIVMTQSPSFLSASVGDRVTITCRASQGISSYLAWYQQKPGKAPKLLIYAASTLQSGVPSRFSGSGSGTEFTLTISSLQPEDFATYYCQQLNSYPPYTFGQGTKLEIK
Work on B1 yielded an EC50 of 1.5 µg/mL.

— paper PMC8183521 (2021)
